# Measurements as given in US20250206841A1 (ADEPT THERAPEUTICS, published 2025).
# Positions count from the first letter of the chain named.
# T1: mouse Trop-2 (mouse, UniProt Q8BGV3 25-270, limits assumed)
# T1 construct: also called Kactus Cat #TRP-MM121
# T1 sequence (looked up): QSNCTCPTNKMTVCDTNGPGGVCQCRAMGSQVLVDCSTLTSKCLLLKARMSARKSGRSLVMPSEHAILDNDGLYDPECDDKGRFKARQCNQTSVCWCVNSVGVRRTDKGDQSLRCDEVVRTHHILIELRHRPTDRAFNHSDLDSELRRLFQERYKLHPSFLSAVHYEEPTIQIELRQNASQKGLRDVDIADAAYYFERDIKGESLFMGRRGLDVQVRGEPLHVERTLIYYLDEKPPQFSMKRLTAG
# T2: human Trop-1 (EpCAM) (human, UniProt P16422 24-265, limits assumed)
# T2 sequence (looked up): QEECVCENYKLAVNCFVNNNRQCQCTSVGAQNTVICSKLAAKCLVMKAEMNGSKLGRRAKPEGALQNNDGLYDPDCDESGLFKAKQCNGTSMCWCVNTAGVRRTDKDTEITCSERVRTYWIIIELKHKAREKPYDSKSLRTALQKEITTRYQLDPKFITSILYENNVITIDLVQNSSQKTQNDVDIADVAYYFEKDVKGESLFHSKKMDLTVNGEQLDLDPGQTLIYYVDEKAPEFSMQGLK
# T3: human Trop-2 expressed on cell surface (human, UniProt P09758 27-323)
# T3 construct: whole, on cells; also called cell surface Trop-2
# T3 sequence (looked up): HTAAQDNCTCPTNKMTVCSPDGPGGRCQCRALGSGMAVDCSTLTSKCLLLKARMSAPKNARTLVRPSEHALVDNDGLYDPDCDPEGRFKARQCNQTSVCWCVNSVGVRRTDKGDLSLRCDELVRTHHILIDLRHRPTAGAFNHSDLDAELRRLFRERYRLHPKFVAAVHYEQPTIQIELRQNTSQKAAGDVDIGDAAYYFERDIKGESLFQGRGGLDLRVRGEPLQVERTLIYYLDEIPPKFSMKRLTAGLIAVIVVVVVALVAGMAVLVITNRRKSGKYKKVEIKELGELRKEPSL
# T4: human Trop-2-His protein (human, UniProt P09758 27-274)
# T4 construct: extracellular domain; Assay paragraphs say only 'Trop-2-His'; also called hTrop-2; Kactus Cat #TRP-HM121; not shown: His tag
# T4 sequence (looked up): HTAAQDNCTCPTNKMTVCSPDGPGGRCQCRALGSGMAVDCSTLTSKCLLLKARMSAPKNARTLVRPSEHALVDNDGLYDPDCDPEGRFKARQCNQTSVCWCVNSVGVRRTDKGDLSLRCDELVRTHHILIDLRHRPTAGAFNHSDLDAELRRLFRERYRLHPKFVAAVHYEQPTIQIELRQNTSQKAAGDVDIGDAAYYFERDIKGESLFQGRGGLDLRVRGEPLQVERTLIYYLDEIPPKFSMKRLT
# B1: 10A9-2 (antibody, V domains shown)
# VH: QSLEESGGDLVQPGASLTLTCKASGFDLNNYAMLWVRQAPGKGLEWIGSIYISGGTTYFASWATGRFAISKTSSTTVTLQMTSLTAADTATYFCARDDGTTSYYLNLWGPGTLVTVSS
# VL: YDMTQTPASVSAAVGGTVTIKCQASEDIYSLLAWYQQKPGQPPKLLIYGASNLESGVPSRFKGSGSGTEYTLTISDLEADDAATYYCQQAYTIGNIDNAFGGGTEVVVK
# B2: 5D4 (antibody, V domains shown)
# VH: QQLEESGGGLVKPEGSLTLTCKGSGFDFSGTYWMWWVRQAPGKGLEWIACIYVGSGSSTYYASWAKGRFTISSTSSTAVTLQATSLTAADTATYFCARGATNNVFMNYFNLWGPGTLVTVSS
# VL: FEMTQTPSSVSEPVGGTVTIKCQASEDISSNLGWYQQKPGQPPKLLIYGASTLASGVPSRFKGSGSGTEFTLTISDLECADAATYYCQTSYYIDDGVNGFGGGTEVVVK
# notes: Rabbit-derived clone; LEM construct: VH + rabbit IgG CH1 + human IgG1 CH2-CH3
# B3: 5D4-1 (antibody, V domains shown)
# VH: B2 VH with C50P
# VL: B2 VL with C79P
# B4: 5D4-2 (antibody, V domains shown)
# VH: B2 VH with C50S
# VL: B2 VL with C79A
# B5: 63H3 (antibody, V domains shown)
# VH: QEQLKESGGGLVQPGGSLKLSCKASGFDFNSYGVSWVRQAPGKGLEWIAYIYPAFHNAYYANWVNGRFTISSDNAQNTVDLQLNSLTAADTATYFCARDAGGTDYNYNLWGPGTLVTVSS
# VL: DVVMTQTPASVEVAVGGTVTLKCQASEDIESYSAWYQQKPGQPPNLLIYEASKLASGVSSRFSGSGYGTEFTLTISGVECADAATYYCQQALTIGNVDNPFGGGSEVVVR
# notes: as for B2
# B6: 65D5 (antibody, V domains shown)
# VH: B5 VH with S31A, A58T, N62T, D73H, V79L, D80Y, S85T, G102T, Y107F
# VL: DIVMTQTPASVSEPVGGTVTIKCQASQSISSYLAWYQQKPGQPPKLLIYEATKLTSGVSSRFSGSGYGTEFTLTISGVECADAATYYCQQALTVGDVDNPFGGGSEVVVK
# notes: as for B2
# B7: 66A1 (antibody, V domains shown)
# VH: B5 VH with S31N, A58T, N62S, D73H, V79L, D80Y, N106A
# VL: DVVMTQTPASVEAAVGGTVSINCQASEDIESYLAWYQQKPGQPPKLLIYKASTLASGVSSRFKGSGSGKQFTLTISGVECADAATYYCQQVLTIGNVDNPFGGGSEVVVK
# notes: as for B2
# Target: T1, mouse Trop-2
# Assay: ELISA, similar to Table 24
row,Binder,binding result
1,B1,no binding
2,B2,no binding
3,B3,no binding
4,B4,no binding
5,B5,no binding
6,B6,no binding
7,B7,no binding

# Target: T2, human Trop-1 (EpCAM)
# Assay: ELISA, similar to Table 24
row,Binder,binding result
1,B1,no binding
2,B2,no binding
3,B3,no binding
4,B4,no binding
5,B5,no binding
6,B6,no binding
7,B7,no binding

# Target: T3, human Trop-2 expressed on cell surface
# Assay: flow cytometry, MCF-7 cells
# Description: Cells were then resuspended in FACS buffer (1×DPBS/1% FBS) at 10⁶/ml concentration. One hundred microliter (100 μl) of cells were aliquoted into a single well in 96 well plates. The antibodies to be tested were serially diluted at 1:3 fold starting at 15 μg/mL and were then added into each well. The antibodies were mixed with cells and the mixtures were incubated on ice for 1 hour. After washing with FACS buffer, one hundred microliter (100 μl) of 1:400 diluted PE-conjugated anti-human Fc secondary antibody (Jackson Immuno Research) was added into each well and incubated for 30 minutes on ice. After washing with FACS buffer, stained cells were resuspended at diluted 7-ADD (Biolegend, used at 1:100 dilution) and analyzed on Guava 11HT or 5HT (Luminex). Data was analyzed using Flowjo software. EC₅₀ values were calculated using GraphPad Prism. Sacitnzurnab govitecan was used as positive control. Anti-HEL.hIgG1 was used as isotype negative control. Similar assay was performed using MCF-7 cells (known to express human Trop-2).
row,Binder,EC50 [nM]
1,B1,1.8
2,B2,1.2
3,B3,1
4,B4,0.8
5,B5,0.6
6,B6,0.8
7,B7,0.6

# Target: T4, human Trop-2-His protein
# Assay: BLI (Gator Plus), purified Ab on HFC probe
# Description: The affinity of the binding of the exemplary anti-Trop-2 antibodies of the present disclosure were determined. Assay was performed using Gator Plus according to the protocol recommended by Gator Bio Inc.. Briefly, human Trop-2-His (Kactus) was 1:4 fold serially diluted starting at 1 μg/ml. After three times of regeneration and neutralization of HFC probe, 1 μg/ml of antibody to be tested in Q buffer was immobilized onto HFC probe. […] The association and dissociation of human Trop-2-His antigen from antibody was measured on BLI machine Gator Plus. Affinity was calculated using Gator Bio analysis software. Blank control was used for reference subtraction. Sacituzumab govitecan was used as positive control.
Binder,Kd [nM],koff [s⁻¹],kon [M⁻¹ s⁻¹]
B1,2.66,0.00089,335000
B2,0.03,1.3e-05,522000
B3,0.1,5.1e-05,489000
B4,0.12,6e-05,487000
B5,0.03,2.5e-05,766000
B6,1.1,0.000898,819000
B7,0.25,0.000193,788000

# Target: T3, human Trop-2 expressed on cell surface
# Assay: cell-based or functional assay
Binder,"Internalization %, MCF-7, 0.25 µg/ml, 1 h [%]","Internalization %, MCF-7, 0.25 µg/ml, 2 h [%]","Internalization %, MCF-7, 0.25 µg/ml, 4 h [%]","Internalization %, MCF-7, 0.5 µg/ml, 1 h [%]","Internalization %, MCF-7, 0.5 µg/ml, 2 h [%]","Internalization %, MCF-7, 0.5 µg/ml, 4 h [%]"
B1,28,37,48,31,47,64
B2,44,52,64,62,59,74
B3,59,57,62,42,56,73
B4,51,67,58,23,43,61
B5,15,26,36,23,37,44
B6,18,36,41,23,41,42
B7,20,36,45,33,45,53
